Common to all, as to assay: cell-based or functional assay
Experiment [1] has as its target T1, SARS-CoV-2 spike protein, wild type (Wuhan) (SARS-CoV-2, UniProt P0DTC2 14-1273).
Experiment [2] concerns the target T1, SARS-CoV-2 spike protein, wild type …. The source holds these as a separate data set.
In experiment [3] the target is spike protein of live SARS-CoV-2 (2019-nCoV/IDF0372/2020) (SARS-CoV-2, UniProt P0DTC2 14-1273).

B1: vS07_14G03 (designed binder)
chain: MRGSHHHHHHGSDLGQKLLHAAQYGQDDEVRILLAAGADVNAKDKQGNTPLHIAAFHGHLEIVEVLLKAGADVNAKDQWGLTPLHLAAAWGHLEIVEVLLKAGADVNAQDNYGQTPADLAAESGHEDIAEVLQKAA
notes: also called S2a
In the case of B1, in experiment [1], the “VSV-SARS-CoV-2 IC50” value was below 100 nM.

B2: ALE033 (designed binder)
chain: MRGSHHHHHHGSDLGKKLLEAARAGQDDEVRELLKAGADVNAKDYFSHTPLHLAARNGHLKIVEVLLKAGADVNAKDFAGKTPLHLAANEGHLEIVEVLLKAGADVNAQDIFGKTPADIAADAGHEDIAEVLQKAAGSPTPTPTTPTPTPTTPTPTPTGSDLGKKLLEAARAGQDDEVRELLKAGADVNAKDYFSHTPLHLAARNGHLKIVEVLLKAGADVNAKDFAGKTPLHLAANEGHLEIVEVLLKAGADVNAQDIFGKTPADIAADAGHEDIAEVLQKAAGSPTPTPTTPTPTPTTPTPTPTGSDLGKKLLQAARAGQLDEVRELLKAGADVNAKDREGITPLHLAAQHGHLEIVEVLLKAGADVNAKDVWGRTPLHLAAWQGHLEIVEVLLKAGADVNAKDLAGATPLHVAALYGHLEIVEVLLKAGADVNAQDKSGKTPADLAARAGHQDIAEVLQKAAGSPTPTPTTPTPTPTTPTPTPTGSDLGKKLLQAARAGQLDEVRELLKAGADVNAKDREGKTPLHVAAQEGHLEIVEVLLKAGADVNAKDVWGRTPLHLAAWIGHLEIVEVLLKAGADVNAKDVSGATPLHAAALHGHLEIVEVLLNAGADVNAQDKSGKTPADLAARAGHQDIAEVLQKAAGSPTPTPTTPTPTPTTPTPTPTGSDLGKKLLQAARAGQLDEVRELLKAGADVNAKDREGITPLHLAAQHGHLEIVEVLLKAGADVNAKDVWGRTPLHLAAWQGHLEIVEVLLKAGADVNAKDLAGATPLHVAALYGHLEIVEVLLKAGADVNAQDKSGKTPADLAARAGHQDIAEVLQKAA
As for B2, in experiment [2], the “IC50, SARS-CoV-2 VSV pseudovirus neutralization (luciferase)” value came to 0.125 nM.

B3: ALE038 (designed binder)
chain: MRGSHHHHHHGSDLGKKLLEAARAGQDDEVRELLKAGADVNAKDYFSHTPLHLAARNGHLKIVEVLLKAGADVNAKDFAGKTPLHLAANEGHLEIVEVLLKAGADVNAQDIFGKTPADIAADAGHEDIAEVLQKAAGSPTPTPTTPTPTPTTPTPTPTGSDLGKKLLEAARAGQDDEVRELLKAGADVNAKDYFSHTPLHLAARNGHLKIVEVLLKAGADVNAKDFAGKTPLHLAANEGHLEIVEVLLKAGADVNAQDIFGKTPADIAADAGHEDIAEVLQKAAGSPTPTPTTPTPTPTTPTPTPTGSDLGKKLLQAARAGQLDEVRELLKAGADVNAKDREGKTPLHVAAQEGHLEIVEVLLKAGADVNAKDVWGRTPLHLAAWIGHLEIVEVLLKAGADVNAKDVSGATPLHAAALHGHLEIVEVLLNAGADVNAQDKSGKTPADLAARAGHQDIAEVLQKAAGSPTPTPTTPTPTPTTPTPTPTGSDLGKKLLQAARAGQLDEVRELLKAGADVNAKDREGITPLHLAAQHGHLEIVEVLLKAGADVNAKDVWGRTPLHLAAWQGHLEIVEVLLKAGADVNAKDLAGATPLHVAALYGHLEIVEVLLKAGADVNAQDKSGKTPADLAARAGHQDIAEVLQKAAGSPTPTPTTPTPTPTTPTPTPTGSDLGHKLLLAAQAGQDDEVRILLAAGADVNAKDVFGQTPLHVAAVAGHLEIVEVLLKAGADVNAKDSIGYTPLHHAARVGHLEIVEVLLKAGADVNAQDWIGITPADLAAFEGHEDIAEVLQKAA
Regarding B3, the “IC50, SARS-CoV-2 VSV pseudovirus neutralization (luciferase)” value in experiment [2] was found to be 0.264 nM.

B4: vS07_19G10 (designed binder)
chain: MRGSHHHHHHGSDLGNKLLDAAWVGQDDEVRILLAAGADVNAKDWQGETPLHLAATKGHLEIVEVLLKAGADVNAKDVVGYTPLHVAASQGHLEIVEVLLKAGADVNAQDVHGYTPADLAAQAGHEDIAEVLQKAA
notes: also called R2a
For B4, the “protection of Vero E6 cells from SARS-CoV-2 cytopathic effect” value in experiment [3] stood at 100 nM.

The record behind these values is patent publication US20220235103A1 (Molecular Partners, published 2022).
